Test results as given in patent US20230277689.

These proteins were tested against plasma purified C3b (Comptech), P01024.
Sequence of plasma purified C3b (Comptech), P01024 (P01024 whole entry, looked up): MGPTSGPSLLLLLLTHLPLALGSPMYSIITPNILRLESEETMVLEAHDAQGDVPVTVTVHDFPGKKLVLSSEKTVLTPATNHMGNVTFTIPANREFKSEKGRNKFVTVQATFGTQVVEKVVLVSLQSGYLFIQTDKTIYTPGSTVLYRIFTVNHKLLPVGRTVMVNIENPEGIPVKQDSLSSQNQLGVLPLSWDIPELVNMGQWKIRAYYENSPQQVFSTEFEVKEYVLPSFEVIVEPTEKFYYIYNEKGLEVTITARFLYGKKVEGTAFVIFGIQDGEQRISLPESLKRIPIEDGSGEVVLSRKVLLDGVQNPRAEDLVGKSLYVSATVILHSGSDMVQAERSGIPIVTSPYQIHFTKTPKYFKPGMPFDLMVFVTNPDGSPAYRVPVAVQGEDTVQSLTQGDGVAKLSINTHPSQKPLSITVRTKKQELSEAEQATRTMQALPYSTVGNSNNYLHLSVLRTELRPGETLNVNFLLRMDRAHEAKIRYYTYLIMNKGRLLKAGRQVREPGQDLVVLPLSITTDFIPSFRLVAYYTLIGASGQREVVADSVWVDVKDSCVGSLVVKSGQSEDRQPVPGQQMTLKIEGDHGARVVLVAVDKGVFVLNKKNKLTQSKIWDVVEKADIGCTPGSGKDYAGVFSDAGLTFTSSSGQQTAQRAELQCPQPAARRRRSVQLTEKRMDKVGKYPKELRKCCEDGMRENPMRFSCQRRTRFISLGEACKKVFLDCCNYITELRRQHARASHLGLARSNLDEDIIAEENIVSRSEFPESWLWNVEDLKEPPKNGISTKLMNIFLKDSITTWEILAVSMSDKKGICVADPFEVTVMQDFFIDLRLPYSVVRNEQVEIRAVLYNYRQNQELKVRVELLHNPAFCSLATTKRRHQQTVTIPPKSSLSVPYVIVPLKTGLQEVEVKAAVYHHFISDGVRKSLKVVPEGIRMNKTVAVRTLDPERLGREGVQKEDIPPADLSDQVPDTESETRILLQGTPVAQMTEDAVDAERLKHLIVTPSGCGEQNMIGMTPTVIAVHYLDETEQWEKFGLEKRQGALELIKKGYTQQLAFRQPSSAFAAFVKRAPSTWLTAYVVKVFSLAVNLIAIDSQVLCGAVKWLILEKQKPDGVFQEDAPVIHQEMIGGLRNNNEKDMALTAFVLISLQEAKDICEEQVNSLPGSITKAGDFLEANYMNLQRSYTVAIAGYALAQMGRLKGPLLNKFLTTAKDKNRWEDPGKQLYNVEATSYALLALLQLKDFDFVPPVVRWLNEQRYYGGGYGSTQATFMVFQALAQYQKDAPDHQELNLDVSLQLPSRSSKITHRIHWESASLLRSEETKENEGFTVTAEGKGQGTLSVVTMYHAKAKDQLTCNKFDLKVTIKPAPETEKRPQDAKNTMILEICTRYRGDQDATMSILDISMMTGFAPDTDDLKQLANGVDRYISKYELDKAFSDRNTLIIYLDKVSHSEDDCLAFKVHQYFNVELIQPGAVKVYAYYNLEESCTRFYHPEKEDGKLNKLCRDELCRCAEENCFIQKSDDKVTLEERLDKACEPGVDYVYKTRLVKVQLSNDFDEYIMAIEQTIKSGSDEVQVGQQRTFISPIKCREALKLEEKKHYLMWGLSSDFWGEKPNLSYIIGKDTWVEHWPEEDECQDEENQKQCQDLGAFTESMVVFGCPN

Protein | C3b cleavage assay (with CFH as co-factor; immunoblot with clone 9)
plasma purified human CFI (Comptech) (protein) KVTYTSQEDLVEKKCLAKKYTHLSCDKVFCQPWQRCIEGTCVCKLPYQCPKNGTAVCATNRRSFPTYCQQKSLECLHPGTKFLNNGTCTAEGKFSVSLKHGNTDSEGIVEVKLVDQDKTMFICKSSWSMREANVACLDLGFQQGADTQRRFKLSDLSINSTECLHVHCRGLETSLAECTFTKRRTMGYQDFADVVCYTQKADSPMDDFFQCVNGKYISQMKACDGINDCGDQSDELCCKACQGKGFHCKSGVCIPSQYQCNGEVDCITGEDEVGCAGFASVTQEETEILTADMDAERRRIKSLLPKLSCGVKNRMHIRRKRIVGGKRAQLGDLPWQVAIKDASGITCGGIYIGGCWILTAAHCLRASKTHRYQIWTTVVDWIHPDLKRIVIEYVDRIIFHENYNAGTYQNDIALIEMKKDGNKKDCELPRSIPACVPWSPYLFQPNDTCIVSGWGREKDNERVFSLQWGEVKLISNCSKFYGNRFYEKEMECAGTYDGSIDACKGDSGGPLVCMDANNVTYVWGVVSWGENCGKPEFPGVYTKVANYFDWISYHVGRPFISQYNV | C3b is degraded by CFIpl to iC3b and C3dg
human Complement Factor I expressed from pAAV.CFIco / AAV.CFIco (codon-optimised cDNA of SEQ ID NO: 8) (protein) KVTYTSQEDLVEKKCLAKKYTHLSCDKVFCQPWQRCIEGTCVCKLPYQCPKNGTAVCATNRRSFPTYCQQKSLECLHPGTKFLNNGTCTAEGKFSVSLKHGNTDSEGIVEVKLVDQDKTMFICKSSWSMREANVACLDLGFQQGADTQRRFKLSDLSINSTECLHVHCRGLETSLAECTFTKRRTMGYQDFADVVCYTQKADSPMDDFFQCVNGKYISQMKACDGINDCGDQSDELCCKACQGKGFHCKSGVCIPSQYQCNGEVDCITGEDEVGCAGFASVTQEETEILTADMDAERRRIKSLLPKLSCGVKNRMHIRRKRIVGGKRAQLGDLPWQVAIKDASGITCGGIYIGGCWILTAAHCLRASKTHRYQIWTTVVDWIHPDLKRIVIEYVDRIIFHENYNAGTYQNDIALIEMKKDGNKKDCELPRSIPACVPWSPYLFQPNDTCIVSGWGREKDNERVFSLQWGEVKLISNCSKFYGNRFYEKEMECAGTYDGSIDACKGDSGGPLVCMDANNVTYVWGVVSWGENCGKPEFPGVYTKVANYFDWISYHVGRPFISQYNV | CFI secreted from transduced cell lines is functionally active and cleaves the α-chain of C3b to iC3b
human Complement Factor I expressed from pAAV.CFI / AAV.CFI (cDNA of SEQ ID NO: 2, Genbank NM_000204.4) (protein) KVTYTSQEDLVEKKCLAKKYTHLSCDKVFCQPWQRCIEGTCVCKLPYQCPKNGTAVCATNRRSFPTYCQQKSLECLHPGTKFLNNGTCTAEGKFSVSLKHGNTDSEGIVEVKLVDQDKTMFICKSSWSMREANVACLDLGFQQGADTQRRFKLSDLSINSTECLHVHCRGLETSLAECTFTKRRTMGYQDFADVVCYTQKADSPMDDFFQCVNGKYISQMKACDGINDCGDQSDELCCKACQGKGFHCKSGVCIPSQYQCNGEVDCITGEDEVGCAGFASVAQEETEILTADMDAERRRIKSLLPKLSCGVKNRMHIRRKRIVGGKRAQLGDLPWQVAIKDASGITCGGIYIGGCWILTAAHCLRASKTHRYQIWTTVVDWIHPDLKRIVIEYVDRIIFHENYNAGTYQNDIALIEMKKDGNKKDCELPRSIPACVPWSPYLFQPNDTCIVSGWGREKDNERVFSLQWGEVKLISNCSKFYGNRFYEKEMECAGTYDGSIDACKGDSGGPLVCMDANNVTYVWGVVSWGENCGKPEFPGVYTKVANYFDWISYHVGRPFISQYNV | CFI secreted from transduced cell lines is functionally active and cleaves the α-chain of C3b to iC3b
